Assay [1] deals with T1, rat PTHR1 (Rattus norvegicus, UniProt P25961).
T1 construct: parathyroid hormone receptor-1, rat; also called rPTHR1; source: HEK293, stably transfected (GR35), on cells
Kind of assay: flow cytometry on cells; HEK293 cell lines stably transfected with PTHRs, in suspension, incubated on ice with 100 nM VHH sortagged with Alexafluor647, pelleted, washed and analysed. The note with it: one partner purified.

For assay [2], the target named is T2, PTHR1_(6E) (Homo sapiens PTHR1 with 14-residue …, UniProt Q03431, chimera).
T2 construct: PTHR1 from its start to the replaced 14-residue fragment of exon 2; replaces 14 residues of exon 2; PTHR1 from the end of the replaced fragment of exon 2 to its end; Made with the Q5 site-directed mutagenesis kit; whole receptor on cells; source: HEK293, stably transfected, on cells
T2 sequence (Q03431 whole entry, looked up, change not shown, the tested form may be a part): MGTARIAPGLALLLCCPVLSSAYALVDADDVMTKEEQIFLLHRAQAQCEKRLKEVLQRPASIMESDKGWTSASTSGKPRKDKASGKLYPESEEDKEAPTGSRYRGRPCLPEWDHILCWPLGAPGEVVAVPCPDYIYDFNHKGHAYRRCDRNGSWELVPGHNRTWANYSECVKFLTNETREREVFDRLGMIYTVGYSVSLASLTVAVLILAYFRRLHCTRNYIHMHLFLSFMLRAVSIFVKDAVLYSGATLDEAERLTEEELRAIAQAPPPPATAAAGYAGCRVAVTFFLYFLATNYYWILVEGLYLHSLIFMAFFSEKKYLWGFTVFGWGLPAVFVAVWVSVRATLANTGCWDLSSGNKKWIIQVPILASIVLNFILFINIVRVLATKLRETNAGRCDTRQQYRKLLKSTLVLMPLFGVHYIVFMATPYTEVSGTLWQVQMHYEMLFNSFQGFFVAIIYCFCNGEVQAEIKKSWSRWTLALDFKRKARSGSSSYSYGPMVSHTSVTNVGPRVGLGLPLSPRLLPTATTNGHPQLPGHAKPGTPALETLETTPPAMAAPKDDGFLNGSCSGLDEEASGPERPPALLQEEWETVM
Kind of assay: flow cytometry on cells; dose response of staining with VHH-Alexafluor647 (median fluorescent intensity); cells in PBS, 1 h on ice; curves without plateau constrained to the plateau seen with other VHHs. The conditions noted are these: one partner purified. (A flow cytometer gives signals particle by particle.)

Some results are limits rather than exact numbers.

T1 sequence (P25961 27-591): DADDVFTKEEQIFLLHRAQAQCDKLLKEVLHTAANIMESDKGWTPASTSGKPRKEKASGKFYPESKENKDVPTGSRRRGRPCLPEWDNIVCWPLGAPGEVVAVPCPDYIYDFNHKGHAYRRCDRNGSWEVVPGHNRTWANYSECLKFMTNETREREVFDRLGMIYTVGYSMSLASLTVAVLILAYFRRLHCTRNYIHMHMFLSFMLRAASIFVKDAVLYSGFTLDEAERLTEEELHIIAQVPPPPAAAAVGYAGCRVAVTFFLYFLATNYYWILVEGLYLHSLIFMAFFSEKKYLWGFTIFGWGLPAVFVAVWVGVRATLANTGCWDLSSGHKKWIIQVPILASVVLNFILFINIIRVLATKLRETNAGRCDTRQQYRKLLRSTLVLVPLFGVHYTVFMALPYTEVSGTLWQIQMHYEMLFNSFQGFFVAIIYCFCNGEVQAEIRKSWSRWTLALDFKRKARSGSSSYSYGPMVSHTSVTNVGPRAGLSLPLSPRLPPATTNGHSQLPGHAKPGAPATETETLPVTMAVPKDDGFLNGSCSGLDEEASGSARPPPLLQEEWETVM

B1: VHH_(PTHR) (VHH)
VHH: EVQLVESGGGLVQAGGSLRLSCAASGNIFANNIMGWYRQPPGKEREFVAHVSHDGDSMYAVSVKGRFAISRKDATNLYLQMNSLKPEDTAIYFCRLLNIPTQGRMEGFWGQGTQVTVSS
notes: VHH 22A3; sortase motif of the expressed construct PelB-VHH-LPETGG-His6; on sortagging what follows LPET is replaced by the GGG of the label; Expressed as PelB-VHH-LPETGG-His6; also called 22A3; VHH_(PTHR)-tetramethylrhodamine; source: E. coli WK6 (pHEN6 vector), osmotic shock, purified (Ni-NTA), then sortagged; not shown: His6, C-terminal, cleaved
With B1, the binding result in assay [1] is on record as “binds”.

B2: VHH6E (VHH)
VHH: QVQLQESGGGLVQPGGSLRLSCAASGFVFENSAMAWYRQAPGKERELIAVIGTTFIKLAESVKGRFTISRDNAKSTVYLQMNNLKPEDTAVYYCSKSGAYWGQGTQVTVSS
notes: VHH05; sortase motif of the expressed construct PelB-VHH-LPETGG-His6; on sortagging what follows LPET is replaced by the GGG of the label; Recognises a 14-mer peptide of UBC6e; also called VHH05; source: E. coli WK6 (pHEN6 vector), osmotic shock, purified (Ni-NTA), then sortagged; not shown: His6, C-terminal, cleaved
In assay [2], B2 returned an EC50 below 10 nM.

In general, EC50 refers to the midpoint of the concentration-response curve. Low readings indicate a more potent agent, high ones a less potent agent.

The values are drawn from article PMC7190724, “Improved GPCR ligands from nanobody tethering” (Nature Communications, 2020).
